According to US20090023900 (published 2009):

Assays:
integrin alphaIIbbeta3 = integrin alphaIIbbeta3 (human, UniProt P08514); test: ELISA
integrin alphaVbeta5 = biological target: T1, integrin alphaVbeta5 (human, UniProt P06756); test: ELISA
T1 chain 1: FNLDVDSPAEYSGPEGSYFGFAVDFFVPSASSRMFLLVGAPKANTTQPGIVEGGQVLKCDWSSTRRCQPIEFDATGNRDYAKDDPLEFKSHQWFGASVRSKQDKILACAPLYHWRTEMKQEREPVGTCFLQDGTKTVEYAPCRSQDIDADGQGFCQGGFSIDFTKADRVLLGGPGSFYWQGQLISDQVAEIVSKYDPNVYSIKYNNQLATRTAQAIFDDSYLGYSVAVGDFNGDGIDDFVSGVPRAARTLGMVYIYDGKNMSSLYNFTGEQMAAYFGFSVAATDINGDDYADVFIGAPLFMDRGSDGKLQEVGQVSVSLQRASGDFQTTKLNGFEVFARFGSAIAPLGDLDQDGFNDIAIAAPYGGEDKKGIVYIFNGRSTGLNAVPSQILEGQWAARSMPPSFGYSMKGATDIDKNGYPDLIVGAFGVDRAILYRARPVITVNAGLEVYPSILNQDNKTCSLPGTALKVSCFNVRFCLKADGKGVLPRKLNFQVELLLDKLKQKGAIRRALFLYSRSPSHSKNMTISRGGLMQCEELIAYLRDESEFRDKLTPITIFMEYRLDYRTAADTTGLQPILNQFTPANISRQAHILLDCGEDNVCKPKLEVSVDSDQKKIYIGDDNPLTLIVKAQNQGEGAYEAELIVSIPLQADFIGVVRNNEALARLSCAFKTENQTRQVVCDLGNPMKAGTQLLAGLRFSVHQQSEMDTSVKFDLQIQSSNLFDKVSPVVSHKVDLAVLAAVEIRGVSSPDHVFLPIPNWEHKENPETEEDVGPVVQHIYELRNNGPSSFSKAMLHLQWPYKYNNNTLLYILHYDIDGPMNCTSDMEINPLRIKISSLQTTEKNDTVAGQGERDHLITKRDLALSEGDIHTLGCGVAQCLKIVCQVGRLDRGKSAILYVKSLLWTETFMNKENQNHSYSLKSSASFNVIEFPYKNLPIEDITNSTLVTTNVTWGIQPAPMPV
T1 chain 2: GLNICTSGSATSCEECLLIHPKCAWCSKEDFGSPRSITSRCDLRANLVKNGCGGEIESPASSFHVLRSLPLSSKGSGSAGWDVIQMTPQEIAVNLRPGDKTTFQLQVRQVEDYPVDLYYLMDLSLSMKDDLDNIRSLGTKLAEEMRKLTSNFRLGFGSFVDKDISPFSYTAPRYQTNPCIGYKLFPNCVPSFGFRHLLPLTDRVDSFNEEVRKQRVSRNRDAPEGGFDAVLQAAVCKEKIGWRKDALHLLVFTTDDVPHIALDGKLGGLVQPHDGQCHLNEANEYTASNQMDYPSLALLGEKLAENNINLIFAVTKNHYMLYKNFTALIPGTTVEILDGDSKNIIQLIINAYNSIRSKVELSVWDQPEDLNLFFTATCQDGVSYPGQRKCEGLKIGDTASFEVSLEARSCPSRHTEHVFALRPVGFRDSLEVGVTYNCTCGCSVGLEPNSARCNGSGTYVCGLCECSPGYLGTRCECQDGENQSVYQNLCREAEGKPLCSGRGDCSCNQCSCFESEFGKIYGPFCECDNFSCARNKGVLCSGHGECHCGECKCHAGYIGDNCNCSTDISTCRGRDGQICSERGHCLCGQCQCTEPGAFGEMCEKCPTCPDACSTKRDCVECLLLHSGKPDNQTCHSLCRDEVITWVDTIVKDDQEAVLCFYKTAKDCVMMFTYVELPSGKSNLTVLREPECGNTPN

B1: Vitaxin (antibody, V domains shown)
VH: QVQLVESGGGVVQPGRSLRLSCAASGFTFSSYDMSWVRQAPGKGLEWVAKVSSGGGSTYYLDTVQGRFTISRDNSKNTLYLQMNSLRAEDTAVYYCARHNYGSFAYWGQGTTVTVSS
VL: EIVLTQSPATLSLSPGERATLSCQASQSISNHLHWYQQRPGQAPRLLIKYRSQSISGIPARFSGSGSGTDFTLTISSLEPEDFAVYYCQQSGSWPHTFGGGTKVEIK
Question: Does B1 bind (integrin alphaIIbbeta3)?
Answer: no binding

Question: Does B1 bind (integrin alphaVbeta5)?
Answer: no binding
